Source: US20240325445A1 (Regeneron, published 2024)

Key:
[1] = target: human B-cell maturation antigen (BCMA) on cells (human) (UniProt Q02223); assay: cell-based or functional assay
[2] = target: T1, human B-cell maturation antigen (BCMA) on cells (human, UniProt Q02223 1-184); assay: cell-based or functional assay
T1 sequence: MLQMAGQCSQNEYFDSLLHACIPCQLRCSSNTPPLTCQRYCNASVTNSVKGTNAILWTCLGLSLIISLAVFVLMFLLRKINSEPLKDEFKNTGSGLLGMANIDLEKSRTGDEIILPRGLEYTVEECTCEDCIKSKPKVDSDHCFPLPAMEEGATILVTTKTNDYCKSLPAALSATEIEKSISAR

[3] = target: irrelevant protein fused to hIgG1-Fc (human); assay: flow cytometry; 10 ug/ml Fc isotype control on Jurkat/NFATLuc cells carrying the CAR, Alexa 647 secondary antibody
[4] = target: T2, BCMA extracellular domain fused to an hIgG1-Fc (human, UniProt Q02223 1-54); assay: flow cytometry; 10 ug/ml BCMA ecto-hFc on Jurkat/NFATLuc cells carrying the CAR, Alexa 647 secondary antibody
T2 construct: also called BCMA ecto-hFc; BCMA-hFc; not shown: human IgG1 Fc
T2 sequence: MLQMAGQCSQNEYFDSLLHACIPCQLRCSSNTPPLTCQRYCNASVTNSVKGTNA
Experimental: Relative cell surface expression of the BCMA CAR constructs in Jurkat/NFATLuc cells was accessed by flow cytometry. […] Cells were then washed and fixed using a 50% solution of BD Cytofix (BD, Cat #554655) diluted in staining buffer. Samples were run on the Intellicyt iQue flow cytometer and analyzed by FlowJo 10.2 to calculate the mean fluorescent intensity (MFI). The signal to noise ratio (S:N) is determined by taking the ratio of the BCMA-hFc or Fc isotype control MFI to the secondary antibody alone MFI.

[5] = target: T1, human B-cell maturation antigen (BCMA) …; assay: cell-based or functional assay; remark: listed apart in the source

“control chimeric antigen receptor with an irrelevant scFv (17363)” showed a percent cytotoxicity (calcein release), H929 target cells, T effector:target ratio 50, mean [1] of -0.8% and a percent cytotoxicity (calcein release), MOLP8 target cells, T effector:target ratio 50, mean [1] of -3.1%.

B1: BCMA 16711 VL-VH chimeric antigen receptor (scFv of mAb16711) (scFv)
chain: DIQMTQSPSSVSASVGDRVTITCRASRGISSWLAWYQQKPGKAPKLLIHAASSLQSGVPSRFSGSGSGTDFTLTISSLQPEDFATYYCQQAISFPFTFGPGTKVDIKGGGGSGGGGSGGGGSQVQLVESGGGVVQPGRSLRLSCAASGFTFSTYGIHWVRQAPGKGLEWVAVILHDGSSNYYAESVKGRFIISRDNSKNTLYLQMNSLRAEDTALYYCTKRYSEAAGPNWFDPWGQGTLVTVSSTTTPAPRPPTPAPTIASQPLSLRPEACRPAAGGAVHTRGLDFACDIYIWAPLAGTCGVLLLSLVITLYCKRGRKKLLYIFKQPFMRPVQTTQEEDGCSCRFPEEEEGGCELRVKFSRSADAPAYKQGQNQLYNELNLGRREEYDVLDKRRGRDPEMGGKPRRKNPQEGLYNELQKDKMAEAYSEIGMKGERRRGKGHDGLYQGLSTATKDTYDALHMQALPPR
notes: 3C7 cells; a linker before the hinge or a signal peptide may be present; also called 16711 VL-VH CART; 16711 CAR
For B1, the “CAR-T Max Activity (NFAT-luciferase, S:N), APC Daudi” value (“CAR-T Max Activity … APC Daudi” for short) [2] was 2.6 S:N (highest RLU / lowest RLU), the “CAR-T Max Activity (NFAT-luciferase, S:N), APC RAJI” value (shortened to “CAR-T Max Activity … APC RAJI”) [2] was 7.9 S:N (highest RLU / lowest RLU) and the “CAR-T Max Activity (NFAT-luciferase, S:N), APC RPMI8226” value (shortened to “CAR-T Max Activity … APC RPMI8226”) [2] was 1.8 S:N (highest RLU / lowest RLU). For the same molecule, the S:N (Isotype-hFc) (ratio of MFI to secondary antibody alone) [3] was 1.2 and the “S:N (BCMA-hFc)” value [4] was 3.7 ratio of MFI to secondary antibody alone.

B2: BCMA 16732 VL-VH chimeric antigen receptor (scFv of mAb16732) (scFv)
chain: DIQMTQSPSSLSASVGDRVTITCRTSQSIGNYLNWFQQKPGKAPKLLIYTASSLQNGVPSRFTGSGSGTDFTLTISSLQPEDFVIYYCQQSFSTPYTFGQGTKLEIKGGGGSGGGGSGGGGSEVQLVESGGGLVQPGRSLRLSCAASGFTFDDYAMHWVRQAPGKGLEWVSGISWNSGNMGYADSVKGRFTISRDNAKNSLFLQMHSLRAEDTAFYYCAKVRLTAFDFWGQGTLVTVSSTTTPAPRPPTPAPTIASQPLSLRPEACRPAAGGAVHTRGLDFACDIYIWAPLAGTCGVLLLSLVITLYCKRGRKKLLYIFKQPFMRPVQTTQEEDGCSCRFPEEEEGGCELRVKFSRSADAPAYKQGQNQLYNELNLGRREEYDVLDKRRGRDPEMGGKPRRKNPQEGLYNELQKDKMAEAYSEIGMKGERRRGKGHDGLYQGLSTATKDTYDALHMQALPPR
notes: 3C7 cells; a linker before the hinge or a signal peptide may be present; also called 16732 VL-VH CART; 16732 CAR
In the case of B2, the “CAR-T Max Activity … APC Daudi” value [2] is reported as 4.9 S:N (highest RLU / lowest RLU), the “CAR-T Max Activity … APC RAJI” value [2] is reported as 16.8 S:N (highest RLU / lowest RLU) and the “CAR-T Max Activity … APC RPMI8226” value [2] is reported as 5.2 S:N (highest RLU / lowest RLU). For the same molecule, the S:N (Isotype-hFc) (ratio of MFI to secondary antibody alone) [3] was 1 and the “S:N (BCMA-hFc)” value [4] was 13.1 ratio of MFI to secondary antibody alone.

B3: BCMA 16747 VL-VH chimeric antigen receptor (scFv of mAb16747) (scFv)
chain: DIQMTQSPSSVSASVGDRVTITCRASQGINNWLVWYQQKPGKAPKLLIYAATSLQSGVPSRFSGSGSGTDFTLTISSLQPEDFATYYCQQANSFPPTFGQGTKLEIKGGGGSGGGGSGGGGSQVQLVESGGGLVKPGGSLRLSCAASGFTFSDYYISWIRQAPGKGLEWVSYISSSGSSIKYADSVKGRFTISRDNAKNSLYLQMNSLRAEDTAVYYCAREGGNYGMDVWGQGTTVTVSSTTTPAPRPPTPAPTIASQPLSLRPEACRPAAGGAVHTRGLDFACDIYIWAPLAGTCGVLLLSLVITLYCKRGRKKLLYIFKQPFMRPVQTTQEEDGCSCRFPEEEEGGCELRVKFSRSADAPAYKQGQNQLYNELNLGRREEYDVLDKRRGRDPEMGGKPRRKNPQEGLYNELQKDKMAEAYSEIGMKGERRRGKGHDGLYQGLSTATKDTYDALHMQALPPR
notes: a linker before the hinge or a signal peptide may be present
B3 was tested, and the “CAR-T Max Activity … APC Daudi” value [2] was 14 S:N (highest RLU / lowest RLU), the “CAR-T Max Activity … APC RAJI” value [2] was 38.9 S:N (highest RLU / lowest RLU) and the “CAR-T Max Activity … APC RPMI8226” value [2] was 12.5 S:N (highest RLU / lowest RLU). The “percent cytotoxicity (calcein release), H929 target cells, T effector:target ratio 0.78, mean” value [5] was 0.9%, the “percent cytotoxicity (calcein release), H929 target cells, T effector:target ratio 1.56, mean” value [5] was 1.8% and the “percent cytotoxicity (calcein release), H929 target cells, T effector:target ratio 3.13, mean” value [5] was 2.9%. For the same molecule, the “percent cytotoxicity (calcein release), H929 target cells, T effector:target ratio 6.25, mean” value [5] was 4.2%, the “percent cytotoxicity (calcein release), H929 target cells, T effector:target ratio 12.5, mean” value [5] was 9.3% and the “percent cytotoxicity (calcein release), H929 target cells, T effector:target ratio 25, mean” value [5] was 19.4%. For the same molecule, the “percent cytotoxicity (calcein release), H929 target cells, T effector:target ratio 50, mean” value [5] was 29.3%, the “percent cytotoxicity (calcein release), MOLP8 target cells, T effector:target ratio 0.78, mean” value [5] was -2.9% and the “percent cytotoxicity (calcein release), MOLP8 target cells, T effector:target ratio 1.56, mean” value [5] was 0.2%. The “percent cytotoxicity (calcein release), MOLP8 target cells, T effector:target ratio 3.13, mean” value [5] was 2.2%, the “percent cytotoxicity (calcein release), MOLP8 target cells, T effector:target ratio 6.25, mean” value [5] was 5.8% and the “percent cytotoxicity (calcein release), MOLP8 target cells, T effector:target ratio 12.5, mean” value [5] was 8.2%. For the same molecule, the “percent cytotoxicity (calcein release), MOLP8 target cells, T effector:target ratio 25, mean” value [5] was 10.9%, the “percent cytotoxicity (calcein release), MOLP8 target cells, T effector:target ratio 50, mean” value [5] was 14% and the S:N (Isotype-hFc) (ratio of MFI to secondary antibody alone) [3] was 1.3. The “S:N (BCMA-hFc)” value [4] was 209 ratio of MFI to secondary antibody alone.
